Measurements taken from PMC9482650, “Quantitative fragmentomics allow affinity mapping of interactomes” (Nature Communications, 2022).

T1: DFNB31_2, Q9P202
T1 sequence (Q9P202 274-371, limits assumed, looked up): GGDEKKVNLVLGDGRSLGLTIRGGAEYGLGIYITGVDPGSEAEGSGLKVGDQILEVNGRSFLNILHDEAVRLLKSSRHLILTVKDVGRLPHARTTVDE

T2: DLG3_2, Q92796
T2 sequence (Q92796 221-321, limits assumed, looked up): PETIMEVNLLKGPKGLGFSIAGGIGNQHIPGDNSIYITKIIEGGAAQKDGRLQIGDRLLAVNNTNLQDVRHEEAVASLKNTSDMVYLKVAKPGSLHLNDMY

T3: DLG3_3, Q92796
T3 sequence (Q92796 374-475, limits assumed, looked up): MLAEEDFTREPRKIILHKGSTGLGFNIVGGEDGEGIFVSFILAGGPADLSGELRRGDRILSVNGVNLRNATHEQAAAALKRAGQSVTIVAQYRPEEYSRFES

T4: GRIP1_2, Q9Y3R0
T4 sequence (Q9Y3R0 145-248, limits assumed, looked up): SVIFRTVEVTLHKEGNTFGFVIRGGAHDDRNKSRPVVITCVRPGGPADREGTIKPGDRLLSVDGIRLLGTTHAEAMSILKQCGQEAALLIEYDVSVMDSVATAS

T5: GRIP1_4, Q9Y3R0
T5 sequence (Q9Y3R0 467-571, limits assumed, looked up): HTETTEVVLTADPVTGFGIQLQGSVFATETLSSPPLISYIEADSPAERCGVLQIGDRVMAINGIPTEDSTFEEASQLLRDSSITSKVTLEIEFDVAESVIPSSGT

T6: HTRA3, P83110
T6 sequence (P83110 354-453, limits assumed, looked up): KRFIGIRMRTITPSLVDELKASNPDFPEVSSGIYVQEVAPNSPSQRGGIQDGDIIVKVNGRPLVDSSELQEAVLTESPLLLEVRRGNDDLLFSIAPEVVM

T7: LIN7B, Q9HAP6
T7 sequence (Q9HAP6 88-185, limits assumed, looked up): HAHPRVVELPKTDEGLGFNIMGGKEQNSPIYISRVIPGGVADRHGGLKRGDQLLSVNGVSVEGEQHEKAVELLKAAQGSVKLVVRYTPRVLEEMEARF

T8: MPDZ_10, O75970
T8 sequence (O75970 1624-1722, limits assumed, looked up): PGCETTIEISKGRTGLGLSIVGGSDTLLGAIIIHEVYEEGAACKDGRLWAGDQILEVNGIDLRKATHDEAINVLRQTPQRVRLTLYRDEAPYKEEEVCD

T9: PARD3B_1, Q8TEW8
T9 sequence (Q8TEW8 196-299, limits assumed, looked up): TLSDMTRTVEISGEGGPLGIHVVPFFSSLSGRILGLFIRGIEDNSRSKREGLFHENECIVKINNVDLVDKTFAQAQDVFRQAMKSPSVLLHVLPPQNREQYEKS

T10: PTPN13_1, Q12923
T10 sequence (Q12923 1088-1188, limits assumed, looked up): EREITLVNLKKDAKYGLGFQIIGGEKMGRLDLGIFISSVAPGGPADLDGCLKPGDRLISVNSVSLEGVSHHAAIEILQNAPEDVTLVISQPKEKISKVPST

T11: RHPN1, Q8TCX5
T11 sequence (Q8TCX5 508-602, limits assumed, looked up): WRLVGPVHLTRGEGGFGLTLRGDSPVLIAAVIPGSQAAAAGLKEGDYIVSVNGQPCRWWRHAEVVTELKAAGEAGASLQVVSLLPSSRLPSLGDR

T12: SYNJ2BP, P57105
T12 sequence (P57105 8-110, limits assumed, looked up): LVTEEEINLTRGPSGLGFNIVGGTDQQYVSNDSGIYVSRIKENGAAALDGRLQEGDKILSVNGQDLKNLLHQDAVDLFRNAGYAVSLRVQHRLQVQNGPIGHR


Target: T1, DFNB31_2, Q9P202
Assay: holdup assay
Parameters: key: below the threshold = too weak to quantify, mostly under pKd 3.1 to 4
Conditions: plain residues with an end cap or a label only (N-terminal biotin on a linker: ado-ado)

Binder	pKd
LLQEEWETVM [PTH1R, Q03431]	below the threshold

Target: DLG2_2, Q15700
Sequence (Q15700 189-283): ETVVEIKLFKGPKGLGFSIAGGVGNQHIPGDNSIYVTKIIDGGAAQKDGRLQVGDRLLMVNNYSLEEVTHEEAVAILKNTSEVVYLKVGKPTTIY
Assay: holdup assay
Parameters: key: below the threshold = too weak to quantify, mostly under pKd 3.1 to 4
Conditions: plain residues with an end cap or a label only (N-terminal biotin on a linker: ado-ado)

Binder	pKd
LLQEEWETVM [PTH1R, Q03431]	below the threshold

Target: T2, DLG3_2, Q92796
Assay: holdup assay
Parameters: key: below the threshold = too weak to quantify, mostly under pKd 3.1 to 4
Conditions: plain residues with an end cap or a label only (N-terminal biotin on a linker: ado-ado)

Binder	pKd
LLQEEWETVM [PTH1R, Q03431]	below the threshold

Target: T3, DLG3_3, Q92796
Assay: holdup assay
Parameters: key: below the threshold = too weak to quantify, mostly under pKd 3.1 to 4
Conditions: plain residues with an end cap or a label only (N-terminal biotin on a linker: ado-ado)

Binder	pKd
LLQEEWETVM [PTH1R, Q03431]	below the threshold

Target: DLG4_2, P78352
Sequence (P78352 155-259): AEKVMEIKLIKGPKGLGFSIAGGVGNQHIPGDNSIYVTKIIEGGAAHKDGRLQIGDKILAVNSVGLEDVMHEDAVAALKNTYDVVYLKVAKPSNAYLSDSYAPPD
Assay: holdup assay
Parameters: key: below the threshold = too weak to quantify, mostly under pKd 3.1 to 4
Conditions: plain residues with an end cap or a label only (N-terminal biotin on a linker: ado-ado)

Binder	pKd
LLQEEWETVM [PTH1R, Q03431]	below the threshold

Target: GORASP2, Q9H8Y8
Assay: holdup assay
Parameters: key: below the threshold = too weak to quantify, mostly under pKd 3.1 to 4
Conditions: plain residues with an end cap or a label only (N-terminal biotin on a linker: ado-ado)

Binder	pKd
LLQEEWETVM [PTH1R, Q03431]	below the threshold

Target: T4, GRIP1_2, Q9Y3R0
Assay: holdup assay
Parameters: key: below the threshold = too weak to quantify, mostly under pKd 3.1 to 4
Conditions: plain residues with an end cap or a label only (N-terminal biotin on a linker: ado-ado)

Binder	pKd
LLQEEWETVM [PTH1R, Q03431]	3.63

Target: T5, GRIP1_4, Q9Y3R0
Assay: holdup assay
Parameters: key: below the threshold = too weak to quantify, mostly under pKd 3.1 to 4
Conditions: plain residues with an end cap or a label only (N-terminal biotin on a linker: ado-ado)

Binder	pKd
LLQEEWETVM [PTH1R, Q03431]	below the threshold

Target: HTRA1, Q92743
Sequence (Q92743 360-477): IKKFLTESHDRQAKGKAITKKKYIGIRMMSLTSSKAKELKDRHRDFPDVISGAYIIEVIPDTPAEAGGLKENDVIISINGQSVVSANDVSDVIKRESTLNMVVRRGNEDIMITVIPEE
Assay: holdup assay
Parameters: key: below the threshold = too weak to quantify, mostly under pKd 3.1 to 4
Conditions: plain residues with an end cap or a label only (N-terminal biotin on a linker: ado-ado)

Binder	pKd
LLQEEWETVM [PTH1R, Q03431]	4.68

Target: T6, HTRA3, P83110
Assay: holdup assay
Parameters: key: below the threshold = too weak to quantify, mostly under pKd 3.1 to 4
Conditions: plain residues with an end cap or a label only (N-terminal biotin on a linker: ado-ado)

Binder	pKd
LLQEEWETVM [PTH1R, Q03431]	below the threshold

Target: IL16_1, Q14005
Sequence (Q14005 210-306): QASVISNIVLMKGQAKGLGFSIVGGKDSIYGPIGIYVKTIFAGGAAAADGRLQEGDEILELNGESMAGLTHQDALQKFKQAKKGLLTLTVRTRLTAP
Assay: holdup assay
Parameters: key: below the threshold = too weak to quantify, mostly under pKd 3.1 to 4
Conditions: plain residues with an end cap or a label only (N-terminal biotin on a linker: ado-ado)

Binder	pKd
LLQEEWETVM [PTH1R, Q03431]	below the threshold

Target: Inadl_10, Q8NI35
Sequence (Q8NI35 1673-1763): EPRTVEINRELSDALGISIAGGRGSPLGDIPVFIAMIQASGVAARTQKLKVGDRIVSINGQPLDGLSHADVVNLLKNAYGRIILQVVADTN
Assay: holdup assay
Parameters: key: below the threshold = too weak to quantify, mostly under pKd 3.1 to 4
Conditions: plain residues with an end cap or a label only (N-terminal biotin on a linker: ado-ado)

Binder	pKd
LLQEEWETVM [PTH1R, Q03431]	below the threshold

Target: Inadl_5, Q8NI35
Sequence (Q8NI35 673-780): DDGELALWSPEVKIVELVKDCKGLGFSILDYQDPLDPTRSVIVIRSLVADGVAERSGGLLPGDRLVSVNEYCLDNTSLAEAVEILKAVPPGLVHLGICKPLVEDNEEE
Assay: holdup assay
Parameters: key: below the threshold = too weak to quantify, mostly under pKd 3.1 to 4
Conditions: plain residues with an end cap or a label only (N-terminal biotin on a linker: ado-ado)

Binder	pKd
LLQEEWETVM [PTH1R, Q03431]	below the threshold

Target: Inadl_9, Q8NI35
Sequence (Q8NI35 1530-1615): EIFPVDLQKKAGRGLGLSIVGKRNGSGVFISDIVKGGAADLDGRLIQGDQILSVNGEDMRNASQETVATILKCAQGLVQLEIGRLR
Assay: holdup assay
Parameters: key: below the threshold = too weak to quantify, mostly under pKd 3.1 to 4
Conditions: plain residues with an end cap or a label only (N-terminal biotin on a linker: ado-ado)

Binder	pKd
LLQEEWETVM [PTH1R, Q03431]	below the threshold

Target: LAP2, Q96RT1
Sequence (Q96RT1 other isoform, or with tags, fused parts or gaps): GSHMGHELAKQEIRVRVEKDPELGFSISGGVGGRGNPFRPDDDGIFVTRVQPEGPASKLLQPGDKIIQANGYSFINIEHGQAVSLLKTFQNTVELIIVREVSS
Assay: holdup assay
Parameters: key: below the threshold = too weak to quantify, mostly under pKd 3.1 to 4
Conditions: plain residues with an end cap or a label only (N-terminal biotin on a linker: ado-ado)

Binder	pKd
LLQEEWETVM [PTH1R, Q03431]	below the threshold

Target: T7, LIN7B, Q9HAP6
Assay: holdup assay
Parameters: key: below the threshold = too weak to quantify, mostly under pKd 3.1 to 4
Conditions: plain residues with an end cap or a label only (N-terminal biotin on a linker: ado-ado)

Binder	pKd
LLQEEWETVM [PTH1R, Q03431]	below the threshold

Target: T8, MPDZ_10, O75970
Assay: holdup assay
Parameters: key: below the threshold = too weak to quantify, mostly under pKd 3.1 to 4
Conditions: plain residues with an end cap or a label only (N-terminal biotin on a linker: ado-ado)

Binder	pKd
LLQEEWETVM [PTH1R, Q03431]	below the threshold

Target: NHERF4_4, Q86UT5
Sequence (Q86UT5 464-550): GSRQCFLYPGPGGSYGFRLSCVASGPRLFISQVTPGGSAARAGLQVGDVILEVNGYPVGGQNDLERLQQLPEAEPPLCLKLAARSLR
Assay: holdup assay
Parameters: key: below the threshold = too weak to quantify, mostly under pKd 3.1 to 4
Conditions: plain residues with an end cap or a label only (N-terminal biotin on a linker: ado-ado)

Binder	pKd
LLQEEWETVM [PTH1R, Q03431]	below the threshold

Target: NOS1, P29475
Sequence (P29475 9-101): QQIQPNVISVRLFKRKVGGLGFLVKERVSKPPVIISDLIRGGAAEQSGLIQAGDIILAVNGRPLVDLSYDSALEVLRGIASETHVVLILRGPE
Assay: holdup assay
Parameters: key: below the threshold = too weak to quantify, mostly under pKd 3.1 to 4
Conditions: plain residues with an end cap or a label only (N-terminal biotin on a linker: ado-ado)

Binder	pKd
LLQEEWETVM [PTH1R, Q03431]	below the threshold

Target: T9, PARD3B_1, Q8TEW8
Assay: holdup assay
Parameters: key: below the threshold = too weak to quantify, mostly under pKd 3.1 to 4
Conditions: plain residues with an end cap or a label only (N-terminal biotin on a linker: ado-ado)

Binder	pKd
LLQEEWETVM [PTH1R, Q03431]	4.43

Target: T10, PTPN13_1, Q12923
Assay: holdup assay
Parameters: key: below the threshold = too weak to quantify, mostly under pKd 3.1 to 4
Conditions: plain residues with an end cap or a label only (N-terminal biotin on a linker: ado-ado)

Binder	pKd
LLQEEWETVM [PTH1R, Q03431]	below the threshold

Target: T11, RHPN1, Q8TCX5
Assay: holdup assay
Parameters: key: below the threshold = too weak to quantify, mostly under pKd 3.1 to 4
Conditions: plain residues with an end cap or a label only (N-terminal biotin on a linker: ado-ado)

Binder	pKd
LLQEEWETVM [PTH1R, Q03431]	4.41

Target: T12, SYNJ2BP, P57105
Assay: holdup assay
Parameters: key: below the threshold = too weak to quantify, mostly under pKd 3.1 to 4
Conditions: plain residues with an end cap or a label only (N-terminal biotin on a linker: ado-ado)

Binder	pKd
LLQEEWETVM [PTH1R, Q03431]	below the threshold

Target: TJP1_3, Q07157
Sequence (Q07157 416-512): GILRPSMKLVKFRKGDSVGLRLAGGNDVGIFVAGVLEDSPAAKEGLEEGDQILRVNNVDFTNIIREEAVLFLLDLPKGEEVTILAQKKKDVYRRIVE
Assay: holdup assay
Parameters: key: below the threshold = too weak to quantify, mostly under pKd 3.1 to 4
Conditions: plain residues with an end cap or a label only (N-terminal biotin on a linker: ado-ado)

Binder	pKd
LLQEEWETVM [PTH1R, Q03431]	below the threshold

Target: TJP2_1, Q9UDY2
Sequence (Q9UDY2 24-128): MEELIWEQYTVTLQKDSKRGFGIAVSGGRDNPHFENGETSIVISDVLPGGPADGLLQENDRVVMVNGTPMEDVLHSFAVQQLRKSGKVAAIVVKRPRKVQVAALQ
Assay: holdup assay
Parameters: key: below the threshold = too weak to quantify, mostly under pKd 3.1 to 4
Conditions: plain residues with an end cap or a label only (N-terminal biotin on a linker: ado-ado)

Binder	pKd
LLQEEWETVM [PTH1R, Q03431]	below the threshold
